Results on 2 molecules are retold here after article PMC2193777.

The data set concerns the target strepAID (human, UniProt Q9GZX7 1-198). The data set is described as follows: EMSA.

strepAID, sequence (Q9GZX7 whole entry): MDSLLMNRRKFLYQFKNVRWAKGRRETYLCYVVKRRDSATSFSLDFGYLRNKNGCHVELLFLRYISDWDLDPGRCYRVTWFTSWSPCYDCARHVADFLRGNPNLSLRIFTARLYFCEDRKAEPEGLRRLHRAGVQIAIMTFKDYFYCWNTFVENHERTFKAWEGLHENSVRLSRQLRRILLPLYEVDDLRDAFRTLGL

On to ATCGGAATGTATGAGAATAGAAGAGATAATGAATAATAGAA (ssDNA) [ssDNA (TCGend)], for which the binding result is reported as “binds”. In the case of AUCGGAAUGUAUGAGAAUAGAAGAGAUAAUGAAUAAUAGAA (ssRNA) [ssRNA], the binding result is reported as “binds”.
